B1: CPEB3 Ribozyme (parent)
chain: UAACAGGGGGCCACAGCAGAAGCGUUCACGUCGCAGCCCCUGUCAGAUUCUGGUGAAUCUGCGAAUUCUGCUGUAUAUCUC

Variants of B1 are the subject of this series. The series can be described thus: self-cleavage, relative activity (ratio to wild type); higher = more cleavage; in vitro, sequencing. The method in brief: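 CPEB3 self-cleaving ribozyme mutant libraries were made by rounds of error-prone PCR, barcoded, and transcribed in vitro with T7 RNA polymerase for 5 hours at 37°C. Cleavage occurred during transcription and a 15 min DNase I step before EDTA stop. RNAs were reverse transcribed with template switching and Illumina-sequenced, with DNA sequencing mapping barcodes to variants. Relative activity is the variant's cleaved/total read fraction divided by wild type's (minimum 5 reads), averaged across three batches.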
Consider UAACAGGGGGCCACAGCAGAAGCUUUCACGUCGCAGCCCCUGUCAGAUUCUGGUGAAUCUGCGAAUUCUGCUGUGUAUCUC [G24U A75G], for which the self-cleavage amounted to 0.08.
Then UAACAGGGGGCCACAGCAGAAGCUUCCACGUCGCAGCCCCUGUCAGAUUCUGGUGAAUCUGCGAAUUCUGCUGUAUAUCUC [G24U U26C], with 0.11.
The same measure for UAACAGGGGGCCACAGCAGAAGCCUUCACGUCGCAGCCCCUGUCAGAUUCUGGUGAAUCUGCGAAUACUGCUGUAUAUCUC [G24C U67A]: 0.21; for UAACAGGGGGCCACAGCAGAAGCCUUCACGUCGCAGCCCCUGUCAGAUUCUGGUGAAUCUGCGAAUCCUGCUGUAUAUCUC [G24C U67C]: 0.11; for UAACAGGGGGCCACAGCAGAAGCCUUCACGUCGCAGCCCCUGUCAGAUUCUGGUGAAUCAGCGAAUUCUGCUGUAUAUCUC [G24C U60A]: 0.45.
Take UAACAGGGGGCCACAGCAGAAGCUUUCACGUCGCAGCCCCUGUCAGAUUCUGGCGAAUCUGCGAAUUCUGCUGUAUAUCUC [G24U U54C]: the self-cleavage was determined as 0.17.
Then UAACAGGGGGCCACAGCAGAAGCCUUCACGUCGCAGCCCCUGUCAGAUUCUGGUGAAUCUGCGAAUUCUGCUGUACAUCUC [G24C U76C], with 0.2.
Then UAACAGGGGGCCACAGCAGAAGCUUUCACGUCGCAGCCCCUGUCAGAUUCUGGUGAAUCUGCGAAUUCUGCUGUAUAUCCC [G24U U80C], with 0.41.
The same measure for UAACAGGGGGCCACAGCAGAAGCUUUCACGUCGCAGCCCCUGUCAGAUUCUGGUGAAUCUGCGAAUUCUGCUGUAUAUCAC [G24U U80A]: 0.22.
With UAACAGGGGGCCACAGCAGAAGCUUUCACGUCGCAGCUCCUGUCAGAUUCUGGUGAAUCUGCGAAUUCUGCUGUAUAUCUC [G24U C38U], the self-cleavage was 0.1.
UAACAGGGGGCCACAGCAGAAGCUUUCACGUCGCAGCCCCUGUCAGACUCUGGUGAAUCUGCGAAUUCUGCUGUAUAUCUC [G24U U48C]: the self-cleavage stood at 0.12.
The same measure for UAACAGGGGGCCACAGCAGAAGCCUUCACGUCGCAGCCCCUGUCAGACUCUGGUGAAUCUGCGAAUUCUGCUGUAUAUCUC [G24C U48C]: 0.22; for UAACAGGGGGCCACAGCAGAAGCGAUCACGUCGCAGCCCCUGUCUGAUUCUGGUGAAUCUGCGAAUUCUGCUGUAUAUCUC [U25A A45U]: 0.19.
The same measure for UAACAGGGGGCCACAGCAGAAGCGAUCACGUCGCAGCCCCUGUCGGAUUCUGGUGAAUCUGCGAAUUCUGCUGUAUAUCUC [U25A A45G]: 0.27; for UAACAGGGGGCCACAGCAGAAGCGAUCACGUCGCAGCCCCUGUCCGAUUCUGGUGAAUCUGCGAAUUCUGCUGUAUAUCUC [U25A A45C]: 0.6.
Then UAACAGGGGGCCACAGCAGAAGCGAUCACGUCGCAGCCCCUGUCAGAUUCUGGUGAGUCUGCGAAUUCUGCUGUAUAUCUC [U25A A57G], with 0.3.
As for UAACAGGGGGCCACAGCAGAAGCCUUCACGUCGCAGCCCCUGUCAGAUUCUGGCGAAUCUGCGAAUUCUGCUGUAUAUCUC [G24C U54C], the self-cleavage was determined as 0.14.
For the variant UAACAGGGGGCCACAGCAGAAGCCUUCACGUCGCAGCCCCUGUCAGAUUCUGGAGAAUCUGCGAAUUCUGCUGUAUAUCUC [G24C U54A], the self-cleavage amounted to 0.13.
As for UAACAGGGGGCCACAGCAGAAGCGAUCCCGUCGCAGCCCCUGUCAGAUUCUGGUGAAUCUGCGAAUUCUGCUGUAUAUCUC [U25A A28C], the self-cleavage was determined as 0.39.
Then UAACAGGGGGCCACAGCAGAAGCGAUCUCGUCGCAGCCCCUGUCAGAUUCUGGUGAAUCUGCGAAUUCUGCUGUAUAUCUC [U25A A28U], with 0.52.
The same measure for UAACAGGGGGCCACAGCAGAAGCGAUCGCGUCGCAGCCCCUGUCAGAUUCUGGUGAAUCUGCGAAUUCUGCUGUAUAUCUC [U25A A28G]: 0.28; for UAACAGGGGGCCACAGCAGAAGCUUUCACGUCGCAGCCCCUGUCAGAUUCUGGUGAACCUGCGAAUUCUGCUGUAUAUCUC [G24U U58C]: 0.17; for UAACAGGGGGCCACAGCAGAAGCUUUCACGUCGCAGCCCCUGUAAGAUUCUGGUGAAUCUGCGAAUUCUGCUGUAUAUCUC [G24U C44A]: 0.18.
Then UAACAGGGGGCCACAGCAGAAGCCUUCACGUCGCAGCCCCUGCCAGAUUCUGGUGAAUCUGCGAAUUCUGCUGUAUAUCUC [G24C U43C], with 0.18; and UAACAGGGGGCCACAGCAGAAGCCUUCACGUCGCAGCCCCUGACAGAUUCUGGUGAAUCUGCGAAUUCUGCUGUAUAUCUC [G24C U43A], with 0.54; and UAACAGGGGGCCACAGCAGAAGCCUUCACGUCGCAGCCCCUGUCAGAUUCUGGUGAAUCUGCGAAUUCUGCAGUAUAUCUC [G24C U72A], with 0.19.
Consider UAACAGGGGGCCACAGCAGAAGCCUUCACGUCGCAGCCCCUGUCAGAUUCUGGUGAAUCUGCGAAUUCUGCCGUAUAUCUC [G24C U72C], for which the self-cleavage is 0.15.
Then UAACAGGGGGCCACAGCAGAAGCCUUCACGUCGCAGCCCCUGUCAGAUUCUGGUGAAUCUGCGAAUUCUGCGGUAUAUCUC [G24C U72G], with 0.2; and UAACAGGGGGCCACAGCAGAAGCCUUCACGUCGCAGCCCCUGUCAGAUCCUGGUGAAUCUGCGAAUUCUGCUGUAUAUCUC [G24C U49C], with 0.46.
Consider UAACAGGGGGCCACAGCAGAAGCGAUCACGUCGCAGCCCCUGUCAGAUUCUGGUGUAUCUGCGAAUUCUGCUGUAUAUCUC [U25A A56U], for which the self-cleavage came out at 0.27.
The same measure for UAACAGGGGGCCACAGCAGAAGCGAUCACGUCGCAGCCCCUGUCAGAUUCUGGUGGAUCUGCGAAUUCUGCUGUAUAUCUC [U25A A56G]: 0.27; for UAACAGGGGGCCACAGCAGAAGCUUUCACGUCGCAGCCCCUGUCAGAUUCUGGUGAAUCUGCGAAUUCUGCUGUAUAUCUC [G24U]: 0.3; for UAACAGGGGGCCACAGCAGAAGCUUUCACGUCGCAGCCCCUGUCAGAUUCUGGUGAAUCUGCGAAUUCUGCUGUAAAUCUC [G24U U76A]: 0.4.
Then UAACAGGGGGCCACAGCAGAAGCUUUCACGUCGCAGCCCCUGUCAGAUUCUGGUGAAUCUGCGAAUACUGCUGUAUAUCUC [G24U U67A], with 0.16.

The record behind these values is the RNAGym collection of RNA variant scans (doi:10.1093/nar/gkz1192).
